In patent publication US20150355199A1 (ROCHE DIAGNOSTICS OPERATIONS, published 2015):

Assays:
CFHR5-GS-Avi-GS-His8 = target: T1, CFHR5-GS-Avi-GS-His8 (human, UniProt Q9BXR6 19-569); test: SPR (BiaCore), antibody captured by rabbit anti-mouse IgG on CM5 chip, antigen in solution
T1 construct: Tagged recombinant protein from HEK293 cells; also called recombinant CFHR5
T1 sequence: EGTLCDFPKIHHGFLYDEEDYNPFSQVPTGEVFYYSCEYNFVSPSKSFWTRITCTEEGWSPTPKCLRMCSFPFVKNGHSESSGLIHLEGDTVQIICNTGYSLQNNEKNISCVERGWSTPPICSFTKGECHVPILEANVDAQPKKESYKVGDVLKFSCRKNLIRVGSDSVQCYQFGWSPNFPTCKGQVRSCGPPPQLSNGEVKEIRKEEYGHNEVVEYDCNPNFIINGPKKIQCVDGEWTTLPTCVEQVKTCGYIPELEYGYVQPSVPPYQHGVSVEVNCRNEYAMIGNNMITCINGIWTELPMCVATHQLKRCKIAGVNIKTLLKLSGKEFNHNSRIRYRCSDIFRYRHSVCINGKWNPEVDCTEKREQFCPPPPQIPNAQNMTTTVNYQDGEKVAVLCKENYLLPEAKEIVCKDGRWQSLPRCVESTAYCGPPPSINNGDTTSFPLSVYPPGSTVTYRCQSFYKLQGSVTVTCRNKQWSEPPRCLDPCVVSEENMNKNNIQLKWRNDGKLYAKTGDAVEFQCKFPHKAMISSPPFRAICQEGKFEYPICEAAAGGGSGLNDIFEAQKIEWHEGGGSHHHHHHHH
Method: (§1) The antibodies MAB<CFH/CFHR1>M-L20/3, MAB<CFHR1>M-442127, MAB<CFHR1>M-4.1.3 and MAB<CFHR1>M-5.1.5 were analyzed on the BiaCore. The chip CM5 coated with a rabbit anti-Mouse IgG was used to bind the purified monoclonal mouse antibodies. In the next step native CFH or the recombinant CFHR1, CFHR2, CFHR3, CFHR4B or CFHR5 proteins according to SEQ ID No.: 9 to 13 were added to determine the binding affinities of the different antibodies.

[1] = target: T2, recombinant CFHR1-1-5 (tag-less, full-length mature human complement factor H-related protein 1) (human, UniProt Q03591 19-330); test: as above
T2 construct: also called recCFHR1
T2 sequence: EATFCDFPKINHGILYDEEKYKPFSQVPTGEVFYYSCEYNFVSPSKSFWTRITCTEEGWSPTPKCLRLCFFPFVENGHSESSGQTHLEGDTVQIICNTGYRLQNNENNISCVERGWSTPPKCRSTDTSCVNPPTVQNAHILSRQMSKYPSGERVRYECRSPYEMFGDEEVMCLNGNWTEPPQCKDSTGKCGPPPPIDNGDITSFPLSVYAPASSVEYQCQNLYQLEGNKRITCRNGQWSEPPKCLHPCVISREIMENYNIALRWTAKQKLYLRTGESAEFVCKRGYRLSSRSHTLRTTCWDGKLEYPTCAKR
Method: as §1

[2] = target: T3, native human complement factor H (CFH) (human, UniProt P08603 19-1231); test: as above
T3 construct: Native CFH; also called native CFH; serum-purified CFH
Method: as §1

CFHR2-GS-Avi-GS-His8 = target: T4, CFHR2-GS-Avi-GS-His8 (human); test: SPR (BiaCore), antibody captured by rabbit anti-mouse IgG on CM5 chip; n.d. = not detectable
T4 construct: Tagged recombinant protein from HEK293 cells; also called recombinant CFHR2
T4 chain: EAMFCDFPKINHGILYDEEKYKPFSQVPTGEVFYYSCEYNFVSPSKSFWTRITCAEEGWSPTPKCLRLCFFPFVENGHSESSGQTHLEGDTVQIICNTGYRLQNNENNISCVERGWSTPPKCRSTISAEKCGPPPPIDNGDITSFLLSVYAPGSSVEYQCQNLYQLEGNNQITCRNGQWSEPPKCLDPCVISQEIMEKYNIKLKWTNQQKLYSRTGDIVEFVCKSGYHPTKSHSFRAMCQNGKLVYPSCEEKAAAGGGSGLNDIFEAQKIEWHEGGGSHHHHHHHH
Method: as §1

CFHL1-GS-Avi-GS-His8 = target: T5, CFHL1-GS-Avi-GS-His8 (human, UniProt P08603 19-445); test: as above
T5 construct: also called complement factor H isoform 2
Method: as §1

[3] = target: T6, CFHR4-GS-Avi-GS-His8 (CFHR4 Variant B) (human); test: as above
T6 construct: Tagged recombinant protein from HEK293 cells; also called CFHR4B; recombinant CFHR4B
T6 chain: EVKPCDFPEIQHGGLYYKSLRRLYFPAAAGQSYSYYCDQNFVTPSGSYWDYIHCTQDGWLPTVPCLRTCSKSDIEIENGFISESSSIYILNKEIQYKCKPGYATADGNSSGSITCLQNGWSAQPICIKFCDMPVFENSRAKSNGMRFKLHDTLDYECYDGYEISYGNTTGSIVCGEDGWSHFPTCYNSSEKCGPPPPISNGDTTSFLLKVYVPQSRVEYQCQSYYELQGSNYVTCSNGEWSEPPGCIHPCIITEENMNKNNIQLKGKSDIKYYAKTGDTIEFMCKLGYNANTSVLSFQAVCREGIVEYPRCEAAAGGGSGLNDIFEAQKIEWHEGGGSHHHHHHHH
Method: as §1

CFHR3-GS-Avi-GS-His8 = target: T7, CFHR3-GS-Avi-GS-His8 (human, UniProt Q02985 19-330); test: as above
T7 construct: Tagged recombinant protein from HEK293 cells; also called recombinant CFHR3
T7 sequence: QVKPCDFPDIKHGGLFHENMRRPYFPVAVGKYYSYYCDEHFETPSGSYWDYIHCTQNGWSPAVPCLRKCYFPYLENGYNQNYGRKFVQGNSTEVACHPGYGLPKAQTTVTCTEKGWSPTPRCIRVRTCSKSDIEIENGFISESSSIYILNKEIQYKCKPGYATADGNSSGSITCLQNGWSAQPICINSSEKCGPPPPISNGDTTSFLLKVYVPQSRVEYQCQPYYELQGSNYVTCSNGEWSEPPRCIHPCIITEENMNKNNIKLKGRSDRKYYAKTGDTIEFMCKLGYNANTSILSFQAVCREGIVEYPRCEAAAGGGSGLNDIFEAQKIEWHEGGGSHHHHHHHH
Method: as §1

B1: MAB<CFH/CFHR1>M-L20/3 (antibody, V domains shown)
VH: EVLLQQSGPELVKPGASVKIPCKASGYTFTDYNMDWVKQSHGKSLEWIGDINPNNGFTIYNQKFKGKATLTVDKSSSTAYMELRSLTSEDTAIYYCAINWDWFAYWGQGTLVTVSA
VL: DVLMTQTPLSLPVSLGDQASISCRSSQSIVHNNGNTYLEWYLLKPGQSPKLLIYKVSNRFSGVPDRFSGSGSGTDFTLKISRVEAEDLGVYYCFQGSHVPYTFGGGTKLEIKR
notes: Bought monoclonal mouse IgG; also called anti-Complement Factor H, Clone: L20/3; Thermo Scientific cat. no; GAU 020-03-02
In the case of B1, the Kd (CFHR5-GS-Avi-GS-His8) is reported as 10 nM, the Kd [1] is reported as 0.1 nM and the Kd [2] is reported as 8 nM. B1: no binding (CFHR2-GS-Avi-GS-His8); no binding (CFHL1-GS-Avi-GS-His8); no binding [3]. B1: no binding (CFHR3-GS-Avi-GS-His8).
